For the experiment, the target named is T1, RoxP_HypProt_pET-22b.
T1 construct: also called RoxP_6
T1 single chain: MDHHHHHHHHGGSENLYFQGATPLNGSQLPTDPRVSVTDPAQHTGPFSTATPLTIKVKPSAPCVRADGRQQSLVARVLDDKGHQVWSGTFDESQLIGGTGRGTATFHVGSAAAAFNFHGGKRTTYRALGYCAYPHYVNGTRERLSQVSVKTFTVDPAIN
As to the kind of experiment: indirect ELISA on recombinant RoxP orthologs, absorbance normalized (%). A general note: ELISA stands for enzyme-linked immunosorbent assay.

B1: 2H2F3 (antibody, V domains shown)
VH: QVQLQQSGAELVRPGVSVKISCKGSGYTFTDYAMHWVKQSHAKSLEWIGIISTYYGNASYNQKFKGKATMTVDKSSSTAYMELARLTSEDSAIYYCARVPYYGSSYAMDYWGQGTSVTVSS
VL: DVLMTQTPLSLPVSLGDQASISCRSSQNIVHSDGNTYLEWYLQKPGQSPKLLIYKVSNRFSGVPDRFSGSGSGTDFTLKISRVEAEDLGVYYCFQGSHVPWTFGGGTKLEIK
notes: also called IgG-2H2F3-1; 2H2F3-1
As to B1, the binding result is “no binding (tested: 330 ng/ml)”.
